Assay results from a protein production outcome set (Wang et al. 2014).

test: label from the status in PepcDB records
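Also: failed if final PepcDB status was selected cloned or expressed and not failed if soluble or beyond.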

Sequence	protein production
MTVTAPNALNFECETGNYHTFCPISCVAWLYQKIEDSFFLVIGTKTCGYFLQNAMGVMIFAEPRYAMAELEEGDISAQLNDYEELKRLCLEIKRDRNPSVIVWIGTCTTEIIKMDLEGLAPKLEAEIGIPIVVARANGLDYAFTQGEDTVLAAMAARCPTSTAISDPEERNPIQRLLNFGKKKEEVQAQSSQYHPHPPLVLFGSLPDPVVTQLTLELKKQGIKVSGWLPAKRYTELPVIDEGYYVAGVNPFLSRTATTLIRRRKCQLITAPFPIGPDGTRTWIEQICATFGIQPQGLAEREAETWQKLSDYLELVRGKSVFFMGDNLLEISLARFLIRCGMRVLEIGIPYMDKRYQAAELALLSQTCAEMGHPLPTIVEKPDNYNQLQRIKALQPDLVITGMAHANPLEARGISTKWSVEFTFAQIHGFGNARDILELVTRPLRRNQALAGLGWQKLVAHLEHHHHHH	failed
MTVTLKNDYLTVQINEKGAELSSVKANDGIEYIWQADPAVWGRHAPVLFPFVGRLKDDQFQVEDQTYPMGQHGFARDMDFEAVEQDDQHVIMELNSDTETLQKFPFEFKLRLHFTLKDHELIEHYEVVNPDSKKDLLFSIGGHPGFNLNLGDNQIQMEDTHIRIAPKQVYNQIPLKAPYTDPKNPIKFDATTPLDLTHALFKDDAIILDLKGEQITLMTENEVNNHGIAFTVANAPYLGIWSPYPATANFVCLEPWWGIADTVNFNGELKDKLGVNRLAAQETFNQEFSMSFF	failed
MTVVVEFLGTGGAHSEDLGSSSARISLPNSQNMLIDFGPDTYFSVNTRKLQFDAIFITHAHLDHVGGLERLFFSVAFKKQRLIKLYVPVSLVTRLHQIFGMAGSQVAEGGKNFWDCFQLIPITDYFYFSGYRFNVFPVRHHFPGEAFGLALPGCFVYTGDTRPIPEQLVAHAGRGELIFHDATTSSNPAHSALDDLKREYALHDVLDRLVLYHFDSAVERELAETQGWKTVRLGVTYQFGCRHVCSGSMCSNAELSSLGTNKALHNERGTKLPRPSIKKDEFV	failed
MTYGEAYLEGWKNIFNYEGVSNRFEFWSFMIGSGVICLLPLLCWWLAVTINNDYGVFIFFALPVSFILTLIFAVPAIALAVRRMHDIGYSGWWVTIAVLIPVTGVILLILCCLPSKSQDQA	failed
MTYNVTALVGNAGNQDTSGVRVDFVDNGVRVGSYTIPLLRSGETTTVVFNWTPMTVGSHTLQLIIDPENHIQETNETNNRIIL	failed
MVAATSQNTFDSPRSPLYNFTMDIRPLSDVAGVILVGGRSRRMGRDKALIPLGGKPLVERVIDAFRPLFERILLVGDRGERFASYGLPVFPDIHPGSALGGLYTGLVRAGTPHVFVSACDVPWPDPRVIARLCSLREGFDVVVPRTVGGSEPLFAVYGTGCLPAMERMLREGNYRIYDFYPEVRTRYVEQAELADLVTPARTFVNVNTPEEFETIRNREEGMAIKAVSFVAKSGTGKTTLLEKVIAELKGRGYRIGVIKHDAHRFDIDHPGKDSHRLAAAGADTMLIASPEKLALVKKYDESPPLDELLATYFGDVDIVLTEGFKKSSLPKIEVHRMERSATLLCRGEEHDPTLVAVASDAALALDVPVFDLNNPAQVADFVERTFLAAGAALEHHHHHH	not failed
MVALRGKEIDAFLARPDAGRPIVLLYGPDAGLVRERADALIASAVDDPNDPFSLVRLDGDELSAEPSRLVDEAMTVPLFGGQRAIRVRAGSRSFASGIDTLAEMGVKDCRIVIEAGELRPESPLRKACERAKTAVAIGCYPDTERDLAKLMDDELRIANLRIAQDARAALMSFLGGDRQASRNELRKLTLYAHGKGEITLEDVMAVVADASELKLDPIVDGAFAGRPDIVETEFAKAMIAGTYPGVIISAAQRQAAWLHKSALAIADGQPASAVLDGGFPRLHFSRKPAVETALRNFSVARLAAIIEQLATAALDTRKQSTLAAAIAQRTLMAIAANAKRRGLEHHHHHH	failed
MVANLPALFSLGVFVGVILLIMSEKIHLTIAAFLGALILVFTHVITLKEGIDYISQSYATLALFFGVMVLVRSFEPTKIFEYLATQMVLLAKGSGKLLMLGVIAITTPICAVLPNATTVMLLAPLIPPLAQEIGVDFVPILILMVFVANSAGLLTLVGDPATFIVGDAINISFNDYLFKLSFMGVLAIVSIVVITPFLFRHIWRSRFTHLEDLPHPQINHPKVLMAGGVIITLVLIFFVIGESLPVPIPPASVALMGACLALLLASQSKIDTVHNILRDVDWSTLIFFMSIFVIIGSLEKTGVTASLAQLLAVVVGQNIAFGAIVLVFTVGLLSSVVPNIPLVVAMVPLLKQYVVNIGFAGPEILGANFDGQLPAEVLPLFYAMMFGATLGGNGTLVGASSNIVAAGISEQHGRPISFHRFLRYGLPVMAVQLVVAALFVAWLMFTQQG	failed
MVANLVTVVIVNYNSGEMLGKCVEHLLKSTVPIQIIISDNASSDNSLALLEQSELNKQTITIHRNNSNYGFSYANNAVFTKISTPFILYLNPDCFVENDTIENLLHTMHQHNDAGMVGCLVNNMDGSVQIGCCGLTPTPARVLNQLLKLSKIFPNNSKFGGYLFSKEKLPTKPTEVELISGSCMFVRKKAIDEVGLLDDNYFLYCEDYDWFYRFTQSNWKIIFNPNTKVTHIKSFSTKQIPFKVLLYKAKGMWRFYNKFFKENSSPATTLIIRVGIIARFFSLSGLLLFKKLLRTTS	failed
MVAYPGPMPRSPSPGQTPDAPTSGGGSTDSTRQRIVAAAKEEFARHGIAGARVDRIAKQARTSKERVYAYFRSKEALYAHVAERETTALIEATQLDPADLPGYAGILFDHFAARPDHYRLITWGRLELAESADNTSGPLQATIAGKLDKLRDAQRIGLLDPAWDPVDVLALINQIAMTWAGQPEIAAAAADQAVDPSVTARRAALVTAVEHMFPRPDRDQRPNRLT	not failed
MVDISLIIGGPQGGGIESAGQIAIKSMVLLGYEVLGSREYHSNIMGAHSYYHLRVQQHRPRSLKLPVDGVLALDAESVFTHFRDVRPGGILVYDPGTKSTRVDAIQPMAGPLKKRLKSLFDSRGMQPVVESAVKLAEEAGARIVGLPLKEMLKTLSERTGAPVARVSRALNTLGLASMLYMLGVPVEYIEKAISLQFAGKEKVINMNVEAVRIAVDYVREAFGEPESRLPPGPRRGQTMMVATGNDLVAMGKIVGGLGVITYYPITPSSDEALYVEKHSYISIDGPLAEKLGYDKIAVAIVQMEDELASINAVLGAAAAGARASTTTSGPGFSLMNEAVSLAVEAEIPVVVTLWMRAGPSTGMPTRTGQQDLLHSIFSGHGDAPKIVLASGDHVEAFYDAIKAFNWAEEFQTPVIHLLDKYLASSMVSLAREDLDPSKVPITRGKLLDNPPADYRRYEVVEDGISPRARLGSATMVITGLEHDEYGYATEDPVMREIMMFKRERKFKVIEERIPDEEKAVLHGDSEASVALVSFGSTKQPILEALEMLRDEGVRARFAQVRLLYPFPGRLVEEMLEGVEKVIMVEQNLLGQLAMLLRAHTSIKPDSSIVKINGRPLYSFEVAGAVKRILETGEERVVVSHGS	failed
MVDKGVVNNVDECVEGTDHCHIDAICQNTPRSYKCICKSGYTGDGKHCKDVDECEREDNAGCVHDCVNIPGNYRCTCYDGFHLAHDGHNCLDVDECAEGNGGCQQSCVNMMGSYECHCRDGFFLSDNQHTCIQRPEEGMNCMNKNHGCAHICRETPKGGIACECRPGFELTKNQRDCKLTCNYGNGGCQHTCDDTEQGPRCGCHVKFVLHTDGKTCIETCAVNNGGCDSKCHDAATGVHCSCPVGFMLQPDRKTCKDIDECRLHNGGCDHICRNTVGSFECSCKKGYKLLINERSCQDIDECSFDRTCDHMCVNTPGSFQCLCHRGYLLYGISHCGDVDECSINKGGCRFGCINTPGSYQCTCPAGQGRLHWNGKDCTEPVKCQSSSGASKAMLSCSRSGKKDTCALTCPSRARFLPESENGFTVSCGTPSPKAAAGRAIHPGNSTISNSCHEAAVLPVKQRASFKIKDAKCRLHLRNKGKAEEASGRTPGPGGASCSDCQVTFIHLKCDSSRKGKGRRARTPPGKEVTRLTLELEAEVRAEETTAGCGLTCLRQRMERRLKGSLKMLRKSINQDRFLLRLAGLDYELAHKPGLAAGDRAELVEVCRPGQHRAGTKCVSCPQGTYYHGQTEQCVPCPAGTFQEREGQLSCDLCPGSDAHGPLGATNVTTCAGQCPPGQHSGDGFKPCQPCPRGTYQPEAGRTLCFPCGGGLTTKHEGAVSFQDCDTKVQCSPGHYYNTSIHRCIRCAVGSYQPDFRQNFCTRCPGNTSADFDGSTSVAQCKNRQCGGELGEFTGYIESPNYPGNYPAGVECIWNINPPPKRKILIVVPEIFLPSEDECGDVLVMRKNSSPSSITTYETCQTYERPIAFTARSRKLWINFKTSEANSARGFQIPYVTYDEDYEQLVEDIVRDGRLYASENHQEILKDKKLIKAFFEVLAHPQNYFKYTEKHKEMLPKSFIKLLRSKVSSFLRPYK	failed
MVDLGKQRDHNYHHMQIITTPTSVDCSREFRHRRTLRSLIECMIPYCCTYQQQPYQNDTLSVSSTSSSSSSSDHSSSSQSSSTVSGTFFGHRRGRVSFCLQDAAVGSSPLLLLELAVPTAALAKEMDEEGVLRIALECDRRRSSNSRSSSIFDVPVWSMFCNGRKMGFAVRRKVTENDAVFLRMMQSVSVGAGVVPSEEEDQMLYLRARFERVTGSSDSESFHMMNPGGSYGQELSIFLLRS	failed
MVDNKKKRQYPLVPLSVIQSALEEDPISIKMILKHYHSYIVKLCLTNGFNEAEQFITYVDEYMLRQLEIKLIEAILKFKINLEHHHHHH	failed
MVDPNEHKKAVKTQQQDDEQTFEAVARAWHTDNKKWSESHAERILKSLSDNIFPAIGGTHVANLKTRDLLTPIKSVERSGRLEVAKRLKQRVTAIMTYAVQNGLIDYNPAQDMAGAIMPGKVEHRLEHHHHHH	failed
MVDQQDTFAEYFKNWYIFYKKPKVSKVTLNRYQYTYNVINEYFGNKLLKDITRANYQKFIVKYGQNHSPNTMKMINNCIKACVKNAVYDEEIKKDFTYNIELISNRLEHHHHHH	failed
MVDSHVHTPLCGHAEGHPEAYLEEARAKGLKGVVFTDHSPMPPWYDPESRMRLEALPFYLLALERVRERAQDLYVGIGLEADFHPGTEGFVAQLLRRYPFDYVIGSVHYLGAWPLDHPDHQEEYAWRDLKEVFRAYFQEVEKAARSGLFHAIGHLDLPKKFGHRLPEEALLELAEPALRAVAEAGLFLDVNTAGLRRPAKEVYPAPALLRRARELGIGLVLGSDAHRPEEVGFAFPEVQALLAGLGFREAYYFVEGSPVAYPLSRASLEHHHHHH	not failed
MVEAIIFDMDGVLFDTEKYYYDRRASFLGQKGISIDHLPPSFFIGGNTKQVWENILRDEYDKWDVSTLQEEYNTYKQNNPLPYKELIFPDVLKVLNEVKSQGLNIGLASSSVKADIFRALEENRLQAFFDIVLSGEEFKESKPNPEIYLTALKQLNVQASRALIIEDSEKGIAAGVAADVEVWAIRDNLFGMDQSAAKGLLDSLTDVLDLIK	not failed
MVEPSLVLYGAPYERAVEVLEETLRETGARYALLIDRKGFVLAHKEALWAPKPPPLDTLVTLVAGNAAATQALAKLLGEARFQEEVHQGERMGLYVDEAGEHALLVLVFDETAPLGKVKLHGKRAAEALARIAEEALANPPRLALDTEYREGAEALLDDLLRN	not failed
MVESWALTTPPIDIVNQYLFFIKRKTNYMATYYYALASQKFLLEEEPFEEVLKERRRDYGEKNKEIDFWQVIQPAFLNAPELAEAKAKAPEKNVAIVSTNKSFIVWVKLRLEYVLTGEFEAPSDAIPDPLASLDLEHHHHHH	failed
MVEVESDSVAERDRSSFLAGHDAIRLAKSCVDSPPERWYAALYQVYADLTKLRCWSNVEVVYSDSATFPTGLLGPLFEEDSMVQELHSAQCILGSERACFHVRCCIVGSPPSGRAINALSPQSETRTEERIITSRREPEVVIAVPMHAMLKLSNLDQALRMSSHIEGIVKNRHVADSSASTHSTDRQAGSRKSSVIFGFVDEDTTTAYYRIREGACESNDRREFSTDDIASCLAQERT	not failed
MVFDAIVVTDLQGFIIDWNKGSETLYGYSKEQAIGQPVNMLHVPGDTEHITSEVISAVENQGKWTGEIRMLHKDGHIGWIESMCVPIYGENYQMVGALGINRDITKRKKELEHHHHHH	failed
